Experimental data reported in patent US20230302083A1, “HIGHLY-NETWORKED C[…] COMPOSITION” (priority 2020, published 2023).

Each binder was assayed against HLA-A*0301 (human).

Binder | HLA-A*0301 stabilization relative to HIV RK9
GNYQCGHYK (modifications not checked) | > 50%
RVIHFGAGSDK (modifications not checked) | > 50%
KGIYQTSNFR (modifications not checked) | > 50%
VMCGGSLYVK (modifications not checked) | > 50%
